Paper doi:10.1101/2023.02.16.528878 (bioRxiv, 2023)

T1: GST-CDK5RAP3 (human, UniProt Q96JB5 1-506)
T1 sequence: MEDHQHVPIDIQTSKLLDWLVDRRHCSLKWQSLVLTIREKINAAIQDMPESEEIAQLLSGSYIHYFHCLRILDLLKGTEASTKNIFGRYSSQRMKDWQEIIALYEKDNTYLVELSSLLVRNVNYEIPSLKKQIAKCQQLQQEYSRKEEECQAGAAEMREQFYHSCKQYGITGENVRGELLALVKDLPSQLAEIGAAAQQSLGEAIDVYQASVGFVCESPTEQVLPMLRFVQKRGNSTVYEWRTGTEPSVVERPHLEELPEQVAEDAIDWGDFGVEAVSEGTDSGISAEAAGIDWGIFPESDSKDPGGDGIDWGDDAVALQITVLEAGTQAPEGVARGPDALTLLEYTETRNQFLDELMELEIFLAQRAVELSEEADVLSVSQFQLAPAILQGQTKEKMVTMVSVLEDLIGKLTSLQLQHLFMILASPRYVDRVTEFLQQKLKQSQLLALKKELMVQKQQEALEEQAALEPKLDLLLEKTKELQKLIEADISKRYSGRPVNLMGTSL

B1: UFL1^UBS peptide, UFL1(1-21) (peptide)
peptide: MADAWEEIRRLAADFQRAQFA
B2: recombinant UFC1 (enzyme)
chain: MADEATRRVVSEIPVLKTNAGPRDRELWVQRLKEEYQSLIRYVENNKNADNDWFRLESNKEGTRWFGKCWYIHDLLKYEFDIEFDIPITYPTTAPEIAVPELDGKTAKMYRGGKICLTDHFKPLWARNVPKFGLAHLMALGLGPWLAVEIPDLIQKGVIQHKEKCNQ

Legend:
recombinant UFC1 = molecular target: B2; assay: ITC
GST-CDK5RAP3 = molecular target: T1, GST-CDK5RAP3; assay: pull-down

Binder | Kd (recombinant UFC1) [nM] | binding result (GST-CDK5RAP3)
B1 | 410 | –
B2 | – | binds
